Non-standard residues stand in square brackets, D forms with d. No end group written: not given here. Aib = CC(C)(N)C(=O)O

For one experiment, the target named is T1, human GIP-R (human, UniProt P48546 22-466).
T1 sequence (looked up): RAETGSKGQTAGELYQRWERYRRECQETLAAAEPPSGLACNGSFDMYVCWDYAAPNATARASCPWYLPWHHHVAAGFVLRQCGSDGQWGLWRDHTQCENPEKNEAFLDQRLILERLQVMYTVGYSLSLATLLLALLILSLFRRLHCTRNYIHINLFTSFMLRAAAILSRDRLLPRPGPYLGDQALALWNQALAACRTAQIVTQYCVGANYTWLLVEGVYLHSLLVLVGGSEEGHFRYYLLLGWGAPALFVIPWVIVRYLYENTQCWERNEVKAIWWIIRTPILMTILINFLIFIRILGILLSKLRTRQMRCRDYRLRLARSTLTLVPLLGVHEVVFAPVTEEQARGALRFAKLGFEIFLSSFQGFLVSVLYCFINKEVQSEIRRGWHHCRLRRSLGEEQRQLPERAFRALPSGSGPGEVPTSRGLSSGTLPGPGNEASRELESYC
The experiment in a line: cell-based or functional assay.

A further experiment addresses human GLP-R (human, UniProt P43220 24-463). The experiment in a line: cell-based or functional assay.

With Y[Aib]EGTFTSDYSIYLDKQAA[Aib]EFVAWLLAGGPSSGAPPPSKLPETGGSGS-NH2 (also: PEG (site and size not given here)) [PEG-peptide-long24A], the “EC50 [nM], GIP-R (cAMP assay)” value with human GIP-R was 7.51 nM. For the same molecule, the “EC50 [nM], GLP1-R (cAMP assay)” value with human GLP-R was found to be 3.89 nM.

The values are drawn from patent US20160310575A1 (INDIANA UNIVERSITY RESEARCH AND TECHNOLOGY, published 2016).
